In assay [1] the target is T1, HBsAg recombinant protein (hepatitis B virus).
T1 chain: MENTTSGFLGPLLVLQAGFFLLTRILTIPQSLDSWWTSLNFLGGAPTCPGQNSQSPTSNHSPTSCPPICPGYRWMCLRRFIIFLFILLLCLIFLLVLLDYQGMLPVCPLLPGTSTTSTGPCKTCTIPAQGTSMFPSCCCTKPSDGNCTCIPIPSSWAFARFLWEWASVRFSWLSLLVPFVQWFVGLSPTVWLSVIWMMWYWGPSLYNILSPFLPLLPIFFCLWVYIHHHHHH
Put plainly: SPR (Biacore), bsAb on protein A chip, antigen in flow. The protocol:
(§1) Binding affinity of anti-HBsAg/anti-CD3 constructs to HBsAg and human/cynomolgus CD3ε is characterized by SPR using Biacore […] (GE Healthcare). Specifically, the anti-HBsAg/anti-CD3 bispecific antibodies were immobilized on protein A chip at a flow rate of 10 μL/min, and gradient dilution of huCD3ε, cynoCD3ε, or HBsAg antigen was used as the mobile phase. The binding condition was 10 μL/min×180 s. The dissociation condition was 10 μL/min×400 s and the regeneration conditions were 30 μL/min×30 s at pH1.5 Gly. FIG. 10 and FIG. 11 show the kinetic curves of bsAb-2-5 and bsAb-2-6 constructs bind to human and cynomolgus CD3 recombinant proteins, respectively. FIG. 12 show the kinetic curves of bsAb2-5 and bsAb2-6 constructs bind to HBsAg.
Background: Surface plasmon resonance follows binding to a sensor surface in real time, without labels.

Assay [2] has as its target T1, HBsAg recombinant protein. The experiment in a line: ELISA, recombinant protein. The protocol:
(§2) Anti-HBsAg/anti-CD3 bispecific antibodies generated in Example 1 are analyzed by standard ELISA techniques for their binding properties to HBsAg, human CD3E, and rhesus CD3ε recombinant protein, respectively.
A general note: An ELISA detects its analyte on a solid surface through an enzyme-linked reagent.

Assay [3] concerns the target T2, rhesus CD3ε recombinant protein (rhesus).
T2 construct: also called rhesus CD38 [sic]
Put plainly: ELISA, recombinant protein. The protocol: as §2

Assay [4] concerns the target T3, human CD3ε recombinant protein (human, UniProt P07766 23-126).
T3 construct: also called human CD3E; huCD3ε
The experiment in a line: SPR (Biacore), bsAb on protein A chip, antigen in flow. The protocol: as §1

The target in assay [5] is T3, human CD3ε recombinant protein. The experiment in a line: ELISA, recombinant protein. The protocol:
as §2

For assay [6], the target named is T4, cynomolgus CD3ε recombinant protein (cynomolgus, UniProt Q95LI5 22-117).
T4 construct: also called cynoCD3ε; cynomolgus CD38 [sic]
T4 sequence (looked up): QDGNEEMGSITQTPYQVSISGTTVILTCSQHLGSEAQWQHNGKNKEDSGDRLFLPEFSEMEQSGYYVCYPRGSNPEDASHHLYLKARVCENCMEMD
The experiment in a line: SPR (Biacore), bsAb on protein A chip, antigen in flow. The protocol:
as §1

The text below walks through data of patent US20250382352A1 (SCG CELL THERAPY PTE, published 2025).

What is called Kd is the constant that tells how readily two partners part at equilibrium. Usually EC50 stands for the concentration that produces a half-maximal response.

T3 sequence (P07766 23-126 limits assumed): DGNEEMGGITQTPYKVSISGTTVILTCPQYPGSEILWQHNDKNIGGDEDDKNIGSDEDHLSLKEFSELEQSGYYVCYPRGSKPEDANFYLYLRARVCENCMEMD

B1: BsAb2-6-001 (bispecific antibody)
heavy: not shown
light: QTVVTQEPSLTVSPGGTVTLTCRSSTGAVTTSNYANWVQQKPGQAPRALIGGTNKRAPWTPARFSGSLLGDKAALTLSGVQPEDEAEYYCALWYSNLWVFGGGTKLTVLRTVAAPSVFIFPPSDEQLKSGTASVVCLLNNFYPREAKVQWKVDNALQSGNSQESVTEQDSKDSTYSLSSTLTLSKADYEKHKVYACEVTHQGLSSPVTKSFNRGEC
notes: also called VH1VL1; SCG2-6-001
Consider B1, for which the Kd in assay [1] turned out to be 0.0491 nM. For the same molecule, the 50% effective concentration (EC50) in assay [2] turned out to be 0.5 nM; in assay [3], 0.29 nM.

B2: BsAb2-6-011 (bispecific antibody)
heavy: not shown
light: QTVVTQEPSLTVSPGGTVTLTCRSSTGAVTTSNYANWVQQKPGQAPRALIGGTNKRAPWTPARFSGSLLGDKAALTLSGVQPEDEAEYYCALWYSNLWVFGGGTKLTVLRTVAAPSVFIFPPSDEQLKSGTASVVCLLNNFYPREAKVQWKVDNALQSGNSQESVTEQDSKDSTYSLSSTLTLSKADYEKHKVYACEVTHQGLSSPVTKSFNRGEC
notes: also called VH3VL1; SCG2-6-011
For B2, the Kd worked out at 0.375 nM in assay [1] and 29.2 nM in assay [4]. Besides, the results for the EC50 in assay [2], in assay [5] and in assay [3] were 0.44 nM, 0.66 nM and 0.34 nM, respectively.

B3: BsAb2-6-018 (bispecific antibody)
heavy: not shown
light: QAVVTQEPSLTVSPGGTVTLTCRSSTGAVTTSNYANWVQQKPGQAPRGLIGGTNKRAPGTPARFSGSLLGDKAALTLSGVQPEDEAEYFCALWYSNLWVFGGGTKLTVLRTVAAPSVFIFPPSDEQLKSGTASVVCLLNNFYPREAKVQWKVDNALQSGNSQESVTEQDSKDSTYSLSSTLTLSKADYEKHKVYACEVTHQGLSSPVTKSFNRGEC
notes: also called VH4VL3
Consider B3, for which the EC50 is 0.73 nM in assay [2], 0.5 nM in assay [5] and 0.16 nM in assay [3].

B4: BsAb2-6-021 (bispecific antibody)
heavy: not shown
light: QTVVTQEPSLTVSPGGTVTLTCRSSTGAVTTSNYANWVQQKPGQAPRALIGGTNKRAPWTPARFSGSLLGDKAALTLSGVQPEDEAEYYCALWYSNLWVFGGGTKLTVLRTVAAPSVFIFPPSDEQLKSGTASVVCLLNNFYPREAKVQWKVDNALQSGNSQESVTEQDSKDSTYSLSSTLTLSKADYEKHKVYACEVTHQGLSSPVTKSFNRGEC
notes: also called VH5VL1; SCG2-6-021
As for B4, the dissociation constant Kd was found to be 0.348 nM in assay [1] and 148 nM in assay [6]. The EC50 in assay [2] was 0.8 nM; in assay [3], 0.83 nM.

B5: BsAb2-6-026 (bispecific antibody)
heavy: not shown
light: QTVVTQEPSLTVSPGGTVTLTCRSSTGAVTTSNYANWVQQKPGQAPRALIGGTNKRAPWTPARFSGSLLGDKAALTLSGVQPEDEAEYYCALWYSNLWVFGGGTKLTVLRTVAAPSVFIFPPSDEQLKSGTASVVCLLNNFYPREAKVQWKVDNALQSGNSQESVTEQDSKDSTYSLSSTLTLSKADYEKHKVYACEVTHQGLSSPVTKSFNRGEC
notes: also called VH6VL1; SCG2-6-026
Consider B5, for which the results for the Kd in assay [1] and in assay [6] were 0.623 nM and 97.4 nM, respectively. The EC50 in assay [2] turned out to be 0.69 nM; in assay [3], 0.63 nM.

B6: BsAb2-5-018 (bispecific antibody)
heavy: not shown
light: QAVVTQEPSLTVSPGGTVTLTCRSSTGAVTTSNYANWVQQKPGQAPRGLIGGTNKRAPGTPARFSGSLLGDKAALTLSGVQPEDEAEYFCALWYSNLWVFGGGTKLTVLRTVAAPSVFIFPPSDEQLKSGTASVVCLLNNFYPREAKVQWKVDNALQSGNSQESVTEQDSKDSTYSLSSTLTLSKADYEKHKVYACEVTHQGLSSPVTKSFNRGEC
notes: also called VH4VL3
Take B6: the EC50 in assay [2] is 0.12 nM; in assay [5], 0.33 nM; in assay [3], 0.24 nM.

B7: BsAb2-6-006 (bispecific antibody)
heavy: not shown
light: QTVVTQEPSLTVSPGGTVTLTCRSSTGAVTTSNYANWVQQKPGQAPRALIGGTNKRAPWTPARFSGSLLGDKAALTLSGVQPEDEAEYYCALWYSNLWVFGGGTKLTVLRTVAAPSVFIFPPSDEQLKSGTASVVCLLNNFYPREAKVQWKVDNALQSGNSQESVTEQDSKDSTYSLSSTLTLSKADYEKHKVYACEVTHQGLSSPVTKSFNRGEC
notes: also called VH2VL1; SCG2-6-006
As to B7, the results for the Kd in assay [1] and in assay [6] were 0.00116 nM and 9.23 nM, respectively. Moreover, the EC50 in assay [2] came out at 0.31 nM; in assay [3] it was 0.76 nM.

B8: BsAb2-5-012 (bispecific antibody)
heavy: not shown
light: QTVVTQEPSLTVSPGGTVTLTCRSSTGAVTTSNYANWVQQKPGQAPRGLIGGTNKRAPGTPARFSGSLLGDKAALTLSGVQPEDEAEYYCALWYSNLWVFGGGTKLTVLRTVAAPSVFIFPPSDEQLKSGTASVVCLLNNFYPREAKVQWKVDNALQSGNSQESVTEQDSKDSTYSLSSTLTLSKADYEKHKVYACEVTHQGLSSPVTKSFNRGEC
notes: also called VH3VL2
Regarding B8, the concentration for a half-maximal effect (EC50) in assay [2] amounted to 0.16 nM; in assay [5], 0.32 nM; in assay [3] it was 0.24 nM.

B9: BsAb2-5-011 (bispecific antibody)
heavy: not shown
light: QTVVTQEPSLTVSPGGTVTLTCRSSTGAVTTSNYANWVQQKPGQAPRALIGGTNKRAPWTPARFSGSLLGDKAALTLSGVQPEDEAEYYCALWYSNLWVFGGGTKLTVLRTVAAPSVFIFPPSDEQLKSGTASVVCLLNNFYPREAKVQWKVDNALQSGNSQESVTEQDSKDSTYSLSSTLTLSKADYEKHKVYACEVTHQGLSSPVTKSFNRGEC
notes: also called VH3VL1; SCG2-5-011
For the molecule B9, the figures for the equilibrium dissociation constant (Kd) in assay [1] and in assay [4] were 0.0932 nM and 12.4 nM, respectively. Also, the EC50 was 0.2 nM in assay [2], 1.85 nM in assay [5] and 1.99 nM in assay [3].

B10: BsAb2-6-017 (bispecific antibody)
heavy: not shown
light: QTVVTQEPSLTVSPGGTVTLTCRSSTGAVTTSNYANWVQQKPGQAPRGLIGGTNKRAPGTPARFSGSLLGDKAALTLSGVQPEDEAEYYCALWYSNLWVFGGGTKLTVLRTVAAPSVFIFPPSDEQLKSGTASVVCLLNNFYPREAKVQWKVDNALQSGNSQESVTEQDSKDSTYSLSSTLTLSKADYEKHKVYACEVTHQGLSSPVTKSFNRGEC
notes: also called VH4VL2; SCG2-6-017
With B10, the dissociation constant Kd turned out to be 0.0321 nM in assay [1], 0.851 nM in assay [4] and 0.737 nM in assay [6]. Further, the 50% effective concentration (EC50) in assay [2] was 0.6 nM; in assay [5] it was 0.4 nM; in assay [3] it was 0.15 nM.

B11: BsAb2-6-013 (bispecific antibody)
heavy: not shown
light: QAVVTQEPSLTVSPGGTVTLTCRSSTGAVTTSNYANWVQQKPGQAPRGLIGGTNKRAPGTPARFSGSLLGDKAALTLSGVQPEDEAEYFCALWYSNLWVFGGGTKLTVLRTVAAPSVFIFPPSDEQLKSGTASVVCLLNNFYPREAKVQWKVDNALQSGNSQESVTEQDSKDSTYSLSSTLTLSKADYEKHKVYACEVTHQGLSSPVTKSFNRGEC
notes: also called VH3VL3
Take B11: the values for the concentration giving a half-maximal response (EC50) in assay [2], in assay [5] and in assay [3] were 0.47 nM, 0.33 nM and 0.26 nM, respectively.

B12: BsAb2-5-013 (bispecific antibody)
heavy: not shown
light: QAVVTQEPSLTVSPGGTVTLTCRSSTGAVTTSNYANWVQQKPGQAPRGLIGGTNKRAPGTPARFSGSLLGDKAALTLSGVQPEDEAEYFCALWYSNLWVFGGGTKLTVLRTVAAPSVFIFPPSDEQLKSGTASVVCLLNNFYPREAKVQWKVDNALQSGNSQESVTEQDSKDSTYSLSSTLTLSKADYEKHKVYACEVTHQGLSSPVTKSFNRGEC
notes: also called VH3VL3
On to B12, for which the half-maximal effective concentration (EC50) came out at 0.17 nM in assay [2], 0.33 nM in assay [5] and 0.26 nM in assay [3].

B13: BsAb2-6-012 (bispecific antibody)
heavy: not shown
light: QTVVTQEPSLTVSPGGTVTLTCRSSTGAVTTSNYANWVQQKPGQAPRGLIGGTNKRAPGTPARFSGSLLGDKAALTLSGVQPEDEAEYYCALWYSNLWVFGGGTKLTVLRTVAAPSVFIFPPSDEQLKSGTASVVCLLNNFYPREAKVQWKVDNALQSGNSQESVTEQDSKDSTYSLSSTLTLSKADYEKHKVYACEVTHQGLSSPVTKSFNRGEC
notes: also called VH3VL2
In the case of B13, the EC50 in assay [2] worked out at 0.45 nM; in assay [5], 0.32 nM; in assay [3], 0.24 nM.

B14: BsAb2-6-015 (bispecific antibody)
heavy: not shown
light: QTVVTQEPSFSVSPGGTVTLTCRSSTGAVTTSNYANWVQQTPGQAPRGLIGGTNKRAPGVPDRFSGSILGDKAALTITGAQADDESDYYCALWYSNLWVFGGGTKLTVLRTVAAPSVFIFPPSDEQLKSGTASVVCLLNNFYPREAKVQWKVDNALQSGNSQESVTEQDSKDSTYSLSSTLTLSKADYEKHKVYACEVTHQGLSSPVTKSFNRGEC
notes: also called VH3VL5
Turning to B14, the concentration for a half-maximal effect (EC50) turned out to be 0.33 nM in assay [2], 0.19 nM in assay [5] and 0.18 nM in assay [3].

B15: BsAb2-6-020 (bispecific antibody)
heavy: not shown
light: QTVVTQEPSFSVSPGGTVTLTCRSSTGAVTTSNYANWVQQTPGQAPRGLIGGTNKRAPGVPDRFSGSILGDKAALTITGAQADDESDYYCALWYSNLWVFGGGTKLTVLRTVAAPSVFIFPPSDEQLKSGTASVVCLLNNFYPREAKVQWKVDNALQSGNSQESVTEQDSKDSTYSLSSTLTLSKADYEKHKVYACEVTHQGLSSPVTKSFNRGEC
notes: also called VH4VL5
With B15, the concentration giving a half-maximal response (EC50) in assay [2] amounted to 0.56 nM; in assay [5] it was 0.32 nM; in assay [3], 0.12 nM.
